# ± gives the uncertainty stated by the source.
# Assay: self-splicing fitness, log relative to wild type (ln ratio); higher = more splicing; Tetrahymena group I intron in knt gene, E. coli kanamycin selection, DiMSum; sequences stand for … in CUCUCU…GGAGGGAAAAGUUAUCAGGCAUGCACCUGGUAGCUAGUCUUUAAACCAAUAGAUUGCAUCGGUUUAAAAGGCAAGACCGUCAAAUUGCGGGAAAGGGGUCAACAGCCGUUCAGUACCAAGUCUCAGGGGAAACUUUGAGAUGGCCUUGCAAAGGGUAUGGUAAUAAGCUGACGGACAUGGUCCUAACCACGCAGCCAAGUCCUAAGUCAACAGAUCUUCUGUUGAUAUGGAUGCAGUUCACAGACUAAAUGUCGGUCGGGGAAGAUGUAUUCUUCUCAUAAGAUAUAGUCGGACCUCUCCUUAAUGGGAGCUAGCGGAUGAAGUGAUGCAACACUGGAGCCGCUGGGAACUAAUUUGUAUGCGAAAGUAUAUUGAUUAGUUUUGGAGUACUCGUGGUCG
# How it was run: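 Library with all eight P1ex-region intron nucleotides randomised, intron inside the knt kanamycin-resistance gene on pET-22b(+), in E. coli BL21(DE3). Cells grew overnight at 37°C or 30°C on LB agar with or without 25 μg/mL kanamycin (plus 100 μg/mL carbenicillin, 50 μM IPTG, 0.2% rhamnose), in six replicate transformations. Pooled colonies were amplicon-sequenced on Illumina HiSeq 2500. DiMSum fitness is the error-weighted combination of wild-type-normalised replicate fold changes, kanamycin versus none.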
Sequence,self-splicing fitness (ln) (30 °C),self-splicing fitness (ln) (37 °C)
AGAUAGCAAUAUUACGCAGU,-2.55 ± 0.17,-1.49 ± 0.17
AGAUAGCAAUAUUACGCCGC,-3.03 ± 0.3,-2.04 ± 0.32
AGAUAGCAAUAUUACGCGAG,-1.22 ± 0.1,-1.03 ± 0.1
AGAUAGCAAUAUUACGGAAA,-3.51 ± 0.37,-2.34 ± 0.25
AGAUAGCAAUAUUACGGAAC,,-0.911 ± 0.3
AGAUAGCAAUAUUACGGACC,-0.504 ± 0.15,-0.242 ± 0.12
AGAUAGCAAUAUUACGGACU,0.201 ± 0.1,-0.666 ± 0.093
AGAUAGCAAUAUUACGGGAU,-1.24 ± 0.19,-1.21 ± 0.16
AGAUAGCAAUAUUACGUAGC,-2.88 ± 0.22,-2.16 ± 0.24
AGAUAGCAAUAUUACGUUUA,-2.12 ± 0.13,-1.43 ± 0.13
AGCAAGCAAUAUUACGAACC,-0.794 ± 0.12,0.286 ± 0.2
AGCAAGCAAUAUUACGAAGC,-3.28 ± 0.31,
AGCAAGCAAUAUUACGAAUG,-3.77 ± 0.18,-1.71 ± 0.13
AGCAAGCAAUAUUACGACAC,-1.21 ± 0.085,-0.583 ± 0.11
AGCAAGCAAUAUUACGACCU,0.278 ± 0.082,0.39 ± 0.11
AGCAAGCAAUAUUACGACGG,-2.35 ± 0.16,-0.575 ± 0.13
AGCAAGCAAUAUUACGAGUA,-1.67 ± 0.12,-0.688 ± 0.12
AGCAAGCAAUAUUACGAUCU,-0.189 ± 0.052,0.631 ± 0.077
AGCAAGCAAUAUUACGAUGA,-1.33 ± 0.085,-0.569 ± 0.088
AGCAAGCAAUAUUACGCCAG,-2.09 ± 0.2,-2.65 ± 0.44
AGCAAGCAAUAUUACGCCGU,-1.05 ± 0.11,-0.892 ± 0.11
AGCAAGCAAUAUUACGCGUA,-1.83 ± 0.083,-0.167 ± 0.085
AGCAAGCAAUAUUACGCGUC,-3.61 ± 0.15,-3.06 ± 0.24
AGCAAGCAAUAUUACGCUAA,-2.93 ± 0.2,-1.69 ± 0.16

Sequence,self-splicing fitness (ln) (30 °C),self-splicing fitness (ln) (37 °C)
AGCAAGCAAUAUUACGCUAC,-3.82 ± 0.29,-3.16 ± 0.4
AGCAAGCAAUAUUACGGAAC,-3.49 ± 0.43,-2.04 ± 0.18
AGCAAGCAAUAUUACGGAUC,-2.73 ± 0.17,-1.08 ± 0.16
AGCAAGCAAUAUUACGGUAA,-2.53 ± 0.17,-1.38 ± 0.12
AGCAAGCAAUAUUACGUAGC,-3.34 ± 0.18,-2.45 ± 0.19
AGCAAGCAAUAUUACGUGUA,-2.19 ± 0.07,-1.49 ± 0.072
AGCCAGCAAUAUUACGAAGU,-4.11 ± 0.22,-1.75 ± 0.12
AGCCAGCAAUAUUACGAAUG,,-2.45 ± 0.28
AGCCAGCAAUAUUACGACUA,-1.99 ± 0.14,-1.5 ± 0.14
AGCCAGCAAUAUUACGAGUG,-3.63 ± 0.2,-2.13 ± 0.14
AGCCAGCAAUAUUACGAUAC,-3.73 ± 0.14,-3.14 ± 0.14
AGCCAGCAAUAUUACGAUGA,-3.75 ± 0.29,-2.35 ± 0.24
AGCCAGCAAUAUUACGAUGG,-4.33 ± 0.26,-2.28 ± 0.19
AGCCAGCAAUAUUACGCAAU,-3.25 ± 0.2,-1.35 ± 0.17
AGCCAGCAAUAUUACGCCAA,-3.36 ± 0.19,-1.75 ± 0.17
AGCCAGCAAUAUUACGCCUA,-2.14 ± 0.25,-1.07 ± 0.23
AGCCAGCAAUAUUACGCCUU,-1.59 ± 0.16,-0.556 ± 0.2
AGCCAGCAAUAUUACGCGCA,-0.445 ± 0.061,0.255 ± 0.074
AGCCAGCAAUAUUACGCGCG,-1.15 ± 0.075,-0.281 ± 0.076
AGCCAGCAAUAUUACGCGGG,-3.29 ± 0.19,-2.91 ± 0.28
AGCCAGCAAUAUUACGGAGC,-2.39 ± 0.1,-1.83 ± 0.11
AGCCAGCAAUAUUACGGCGG,-2 ± 0.1,-1.1 ± 0.15
AGCCAGCAAUAUUACGGGCA,-1.78 ± 0.14,-0.459 ± 0.13
AGCCAGCAAUAUUACGGGUU,-3.25 ± 0.15,-3.81 ± 0.25
